Source: patent US20230407373A1 (priority 2020, published 2023)
Where two headings read alike, the source gives them in different places.

B1: RBMX (protein, UniProt P38159 1-391, looked up)
RNA-binding motif protein, X …: MVEADRPGKLFIGGLNTETNEKALEAVFGKYGRIVEVLLMKDRETNKSRGFAFVTFESPADAKDAARDMNGKSLDGKAIKVEQATKPSFESGRRGPPPPPRSRGPPRGLRGGRGGSGGTRGPPSRGGHMDDGGYSMNFNMSSSRGPLPVKRGPPPRSGGPPPKRSAPSGPVRSSSGMGGRAPVSRGRDSYGGPPRREPLPSRRDVYLSPRDDGYSTKDSYSSRDYPSSRDTRDYAPPPRDYTYRDYGHSSSRDDYPSRGYSDRDGYGRDRDYSDHPSGGSYRDSYESYGNSRSAPPTRGPPPSYGGSSRYDDYSSSRDGYGGSRDSYSSSRSDLYSSGRDRVGRQERGLPPSMERGYPPPRDSYSSSSRGAPRGGGRGGSRSDRGGGRSRY
B2: FBL: host protein, UniProt P22087 (protein, UniProt P22087 1-321, looked up)
rRNA 2'-O-methyltransferase …: MKPGFSPRGGGFGGRGGFGDRGGRGGRGGFGGGRGRGGGFRGRGRGGGGGGGGGGGGGRGGGGFHSGGNRGRGRGGKRGNQSGKNVMVEPHRHEGVFICRGKEDALVTKNLVPGESVYGEKRVSISEGDDKIEYRAWNPFRSKLAAAILGGVDQIHIKPGAKVLYLGAASGTTVSHVSDIVGPDGLVYAVEFSHRSGRDLINLAKKRTNIIPVIEDARHPHKYRMLIAMVDVIFADVAQPDQTRIVALNAHTFLRNGGHFVISIKANCIDSTASAEAVFASEVKKMQQENMKPQEQLTLEPYERDHAVVVGVYRPPPKVKN
B3: SRSF5: host protein, UniProt Q13243 (protein, UniProt Q13243 1-272, looked up)
Serine/arginine-rich splicing …: MSGCRVFIGRLNPAAREKDVERFFKGYGRIRDIDLKRGFGFVEFEDPRDADDAVYELDGKELCSERVTIEHARARSRGGRGRGRYSDRFSSRRPRNDRRNAPPVRTENRLIVENLSSRVSWQDLKDFMRQAGEVTFADAHRPKLNEGVVEFASYGDLKNAIEKLSGKEINGRKIKLIEGSKRHSRSRSRSRSRTRSSSRSRSRSRSRSRKSYSRSRSRSRSRSRSKSRSVSRSPVPEKSQKRGSSSRSKSPASVDRQRSRSRSRSRSVDSGN

Tests used:
Assay type in all cases: binding
[1] = system: SARS-CoV-2 gRNA; conditions: for target (unweighted spectral count of the protein in the RNP capture): LC-MS/MS, Probe I sample (first 199 lines of Table 2)
[2] = system: HCoV-OC43 gRNA and sgRNA; conditions: for target (unweighted spectral count, OC43 Probe II capture) / target (unweighted spectral count): tested against no-probe control; for target (unweighted spectral count, OC43 Probe II capture): FDR<10%; for target (unweighted spectral count): OC43 Probe II, infected cells; for target (unweighted spectral count, OC43 Probe II) / background (unweighted spectral count, no-probe control): type n_48_v, 48 hpi; for target (unweighted spectral count, OC43 Probe II): OC43 Probe II capture on infected cells; for background (unweighted spectral count, no-probe control): no-probe control on infected cells
[3] = system: gRNA of HCoV-OC43; conditions: for target (spectral count, OC43 Probe I RNP capture) / background (spectral count, no-probe control): type n_48_v: 48 hours post-infection; for target (spectral count, OC43 Probe I RNP capture): infected cells, unweighted spectral count; for background (spectral count, no-probe control): no-probe control on infected cells; for target (spectral count) / background (spectral count): type g_36_m, 36 hpi, Probe I; for target (spectral count): HCoV-OC43-infected HCT-8 cells; for background (spectral count): uninfected-probe control

Row | Molecule | target (unweighted spectral count of the protein in the RNP capture) ([1]; […]) | target (unweighted spectral count, OC43 Probe II capture) ([2]; 36 hpi, type n_36_v) | target (unweighted spectral count) ([2]; 12 hpi (type n_12_v)) | target (unweighted spectral count) ([2]; 24 hpi (type n_24_v)) | target (unweighted spectral count, OC43 Probe II) [2] | background (unweighted spectral count, no-probe control) [2] | target (spectral count, OC43 Probe I RNP capture) [3] | background (spectral count, no-probe control) [3] | target (unweighted spectral count, OC43 Probe II capture) ([2]; 24 hpi, type n_24_v) | target (spectral count) ([2]; type s_36_m, HCoV-OC43-infected HCT-8 cells, 36 hpi, Probe II) | background (spectral count) ([2]; type s_36_m, uninfected-probe control, 36 hpi, Probe II) | target (spectral count) [3] | background (spectral count) [3] | target (unweighted spectral count in RNP capture) ([1]; Probe I capture, […], LC-MS/MS LFQ) | background (unweighted spectral count in control) ([1]; no-probe control pull-down, used as background for Probe I)
1 | B1 | 6 | 12 | 4 | 6 | 20 | 1 | 17 | 1 |  |  |  |  |  |  | 
2 | B2 | 5 | 11 |  |  |  |  | 9 | 2 | 4 | 11 | 1 | 10 | 1 |  | 
3 | B3 |  | 10 |  |  | 12 | 2 |  |  | 4 |  |  | 8 | 1 | 5 | 1
